Where “and” joins values, the source holds several entries; their conditions need not be identical. Equal values may be shown once. Read-outs that look alike come from different tables or passages of the source.
T1: recombinant human IL-23 (p19/p40) (human, UniProt Q9NPF7 20-189; P29460 23-328)
T1 sequence (looked up) 1: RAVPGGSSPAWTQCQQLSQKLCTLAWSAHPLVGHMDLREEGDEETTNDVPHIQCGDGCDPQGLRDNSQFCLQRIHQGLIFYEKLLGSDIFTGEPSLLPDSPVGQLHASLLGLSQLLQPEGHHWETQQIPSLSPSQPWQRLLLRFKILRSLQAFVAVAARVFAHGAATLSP
T1 sequence (looked up) 2: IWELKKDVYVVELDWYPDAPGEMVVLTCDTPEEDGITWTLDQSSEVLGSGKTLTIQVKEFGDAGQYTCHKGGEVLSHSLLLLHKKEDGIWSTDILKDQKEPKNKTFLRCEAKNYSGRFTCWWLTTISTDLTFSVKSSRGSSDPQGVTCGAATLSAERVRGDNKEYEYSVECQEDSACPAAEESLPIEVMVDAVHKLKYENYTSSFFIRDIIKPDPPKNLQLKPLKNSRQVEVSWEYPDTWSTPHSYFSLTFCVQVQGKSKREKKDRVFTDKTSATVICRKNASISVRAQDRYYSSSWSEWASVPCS

T2: native human IL-23 (supernatant of SAC-stimulated THP-1 cells) (human, UniProt Q9NPF7 20-189; P29460 23-328)
T2 sequence (looked up) 1: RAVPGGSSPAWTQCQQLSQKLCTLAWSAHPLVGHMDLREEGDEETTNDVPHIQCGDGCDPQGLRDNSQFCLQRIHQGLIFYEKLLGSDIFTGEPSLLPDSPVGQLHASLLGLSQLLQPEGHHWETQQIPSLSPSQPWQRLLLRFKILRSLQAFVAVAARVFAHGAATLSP
T2 sequence (looked up) 2: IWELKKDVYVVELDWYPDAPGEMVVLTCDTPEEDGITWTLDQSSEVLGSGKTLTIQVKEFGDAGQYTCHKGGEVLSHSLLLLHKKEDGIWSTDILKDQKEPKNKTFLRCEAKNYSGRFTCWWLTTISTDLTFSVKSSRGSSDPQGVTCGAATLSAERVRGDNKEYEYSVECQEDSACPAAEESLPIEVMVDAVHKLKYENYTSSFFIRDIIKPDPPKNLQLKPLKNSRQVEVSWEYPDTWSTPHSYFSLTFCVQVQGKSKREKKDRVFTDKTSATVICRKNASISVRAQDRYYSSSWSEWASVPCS


Tests used:
[1] = molecular target: T1, recombinant human IL-23 (p19/p40); test: cell-based or functional assay
[2] = molecular target: T1, recombinant human IL-23 (p19/p40); test: cell-based or functional assay; remark: listed apart in the source
cynomolgus IL-23 [3] = molecular target: cynomolgus IL-23 (cynomolgus); test: cell-based or functional assay
[4] = molecular target: T2, native human IL-23 (supernatant of …); test: cell-based or functional assay
[5] = molecular target: T1, recombinant human IL-23 (p19/p40); test: cell-based or functional assay; remark: listed apart in the source
cynomolgus IL-23 [6] = molecular target: cynomolgus IL-23 (cynomolgus); test: cell-based or functional assay; remark: listed apart in the source
[7] = molecular target: T1, recombinant human IL-23 (p19/p40); test: cell-based or functional assay; remark: listed apart in the source
cynomolgus IL-23 [8] = molecular target: cynomolgus IL-23 (cynomolgus); test: cell-based or functional assay; remark: listed apart in the source
[9] = molecular target: T1, recombinant human IL-23 (p19/p40); test: cell-based or functional assay; remark: listed apart in the source
cynomolgus IL-23 [10] = molecular target: cynomolgus IL-23 (cynomolgus); test: cell-based or functional assay; remark: listed apart in the source
cynomolgus IL-23 [11] = molecular target: T3, cynomolgus IL-23 (cynomolgus); test: alpha-screen, cIL-23/IL-23R
T3 construct: also called cyno IL-23; cIL-23

[12] = molecular target: T1, recombinant human IL-23 (p19/p40); test: alpha-screen, hIL-23/IL-23R
cynomolgus IL-23 [13] = molecular target: T3, cynomolgus IL-23; test: alpha-screen, cIL-23/hIL-23R
[14] = molecular target: T1, recombinant human IL-23 (p19/p40); test: alpha-screen, hIL-23/hIL-23R
[15] = molecular target: T1, recombinant human IL-23 (p19/p40); test: SPR Biacore 3000, hIL-23 on chip
Procedure: (§1) Binding kinetics of the second round variants are in depth analysed by Surface Plasmon Resonance (Biacore 3000). […] Nanobody binding was assessed at one concentration (100 nM). Each Nanobody was injected for 4 minutes at a flow rate of 45 μl/min to allow binding to chip-bound antigen. Next, binding buffer without Nanobody was sent over the chip at the same flow rate to allow spontaneous dissociation of bound Nanobody.

[16] = molecular target: T1, recombinant human IL-23 (p19/p40); test: SPR Biacore, hIL-23; kd1 125-155 s
[17] = molecular target: T1, recombinant human IL-23 (p19/p40); test: inhibition ELISA, hIL-23/hIL-23R-Fc
Procedure: Visualisation was performed with enhanced soluble 3,3′,5,5′-tetramethylbenzidine (esTMB) colouring reagent, after which the coloring reaction was stopped with 1N HCl. The absorbance was measured at 450 nm.

[18] = molecular target: T1, recombinant human IL-23 (p19/p40); test: SPR Biacore, hIL-23; kd2 200-1000 s
[19] = molecular target: T1, recombinant human IL-23 (p19/p40); test: SPR Biacore 3000, hIL-23 on chip, 100 nM only (indicative)
Procedure: as §1

IC50, splenocyte assay, 19 pM hIL-23 [1] | IC50, splenocyte assay, 19 pM hIL-23 [2] | IC50, splenocyte assay, 3.8 pM cIL-23 (cynomolgus IL-23 [3]) | IC50, splenocyte assay, 19 pM native hIL-23 (Expt 1) [4] | IC50, mouse splenocyte assay (mIL-22) [5] | IC50, mouse splenocyte assay (mIL-22) (cynomolgus IL-23 [6]) | IC50, splenocyte assay hIL-23 [7] | IC50, splenocyte assay cIL-23 (cynomolgus IL-23 [8]) | IC50, splenocyte assay hIL-23 [9] | IC50, splenocyte assay cIL-23 (cynomolgus IL-23 [10]) | IC50 (cynomolgus IL-23 [11]) | IC50 [12] | IC50 (cynomolgus IL-23 [13]) | IC50 [14] | koff [15] | koff [16] | IC50 [17] | koff [18] | Kd [19] | kon [19] | Binder
14 pM | 12 pM | 13 pM | 76 pM and 153 pM | – | – | – | – | – | – | – | – | – | – | – | – | – | – | – | – | P23IL119A3-35GS-81G2 (bispecific antibody) EVQLVESGGGLVQAGGSLRLSCAASGRIFSLPASGNIFNLLTIAWHRQAPGMQRELVATINSGSRTNYADSVKGRFTISRDNAQKTVYLQMNNLKPEDTAVYYCQTSGSGSPNFWGQGTQVTVSSGGGGSGGGGSGGGGSGGGGSGGGGSGGGGSGGGGSEVQLVESGGGLVQPGGSLRLSCIASGLPFSTKSMGWFRQAPGKEREFVARISPGGTSRYYGDFVKGRFAISRDNAKNTTWLQMNSLKAEDTAVYYCASGERSTYIGSNYYRTNEYDYWGTGTQVTVSS
– | – | – | – | 25.5 nM | 37.4 nM | 16.8 nM | 60.5 nM | 16.8 nM | 60.5 nM | 0.42 nM | 0.76 nM | 0.5 nM | 1.21 nM | 0.0048 s⁻¹ | 0.0041 s⁻¹ | 1.76 nM | 0.0014 s⁻¹ | 1.4 nM | 3.7e+06 M⁻¹ s⁻¹ | P23IL119A3 (VHH, p19+ Nanobody) VHH: EVQLVESGGGLVQAGGSLRLSCAASGRIFSLPASGNIFNLLTIAWHRQAPGMQRELVATINSGSRTNYADSVKGRFTISRDNAQKTVYLQMNNLKPEDTAVYYCQTSGSGSPNFWGQGTQVTVSS
– | – | – | – | – | – | 37.3 nM | 66.6 nM | – | – | – | – | 0.73 nM | 1.47 nM | – | 0.0052 s⁻¹ | – | 0.002 s⁻¹ | – | – | P23IL119A3-BASIC (VHH) VHH: EVQLVESGGGLVQPGGSLRLSCAASGRIFSLPASGNIFNLLTIAWYRQAPGMQRELVATINSGSRTNYADSVKGRFTISRDNAQKTLYLQMNNLRPEDTAVYYCQTSGSGSPNFWGQGTLVTVSS
